In US20030171278A1 (Genentech, published 2003) one finds IC50, binding result and EC50 data, which are given here for eight molecules.

Bridges are numbered along the chain shown (N, C = ends). Where no end group is shown, it is not given here.

For experiment [1], the target named is T1, HER2 extracellular domain (HER2-ECD) (human, UniProt P04626 23-652).
T1 construct: extracellular domain; also called immobilized HER2; extracellular domain of Erb2
The experiment in a line: competition ELISA, block of 1.1.FI-Zb binding to immobilized HER2-ECD. For orientation: ELISA stands for enzyme-linked immunosorbent assay.
Protocol: Following a 1 h incubation the plate was washed with PBS-Tween and Strepavidin/HRP conjugate (Streptavidin-POD, Roche Molecular Biochemicals) was added for 30 min.

Experiment [2] addresses T1, HER2 extracellular domain (HER2-ECD). The experiment in a line: phage ELISA, block of 1.1FI phage binding to immobilized HER2-ECD.
Protocol: HER2-ECD was immobilized directly to Maxisorp plates (Nunc) in 50 mM ammonium bicarbonate, pH 9.3, using 5 μg/ml, overnight at 4° C. Wells were blocked using PBS containing 1% BSA (PBS-BSA) for 1 h at 25° C. […] The microtiter plate was washed with PBS containing 0.05% Tween20 (PBS-Tween) and the phage bound to HER2-ECD were detected with an anti-gVIII/HRP monoclonal antibody conjugate (Amersham Pharmacia Biotech).
Experiment [3] has the same target. Briefly: phage binding assay, immobilized HER2-ECD.
In the next experiment the target is T2, HER4 (UniProt Q15303 26-651, limits assumed).
T2 construct: Called 'closely related; HER4'
T2 sequence (looked up): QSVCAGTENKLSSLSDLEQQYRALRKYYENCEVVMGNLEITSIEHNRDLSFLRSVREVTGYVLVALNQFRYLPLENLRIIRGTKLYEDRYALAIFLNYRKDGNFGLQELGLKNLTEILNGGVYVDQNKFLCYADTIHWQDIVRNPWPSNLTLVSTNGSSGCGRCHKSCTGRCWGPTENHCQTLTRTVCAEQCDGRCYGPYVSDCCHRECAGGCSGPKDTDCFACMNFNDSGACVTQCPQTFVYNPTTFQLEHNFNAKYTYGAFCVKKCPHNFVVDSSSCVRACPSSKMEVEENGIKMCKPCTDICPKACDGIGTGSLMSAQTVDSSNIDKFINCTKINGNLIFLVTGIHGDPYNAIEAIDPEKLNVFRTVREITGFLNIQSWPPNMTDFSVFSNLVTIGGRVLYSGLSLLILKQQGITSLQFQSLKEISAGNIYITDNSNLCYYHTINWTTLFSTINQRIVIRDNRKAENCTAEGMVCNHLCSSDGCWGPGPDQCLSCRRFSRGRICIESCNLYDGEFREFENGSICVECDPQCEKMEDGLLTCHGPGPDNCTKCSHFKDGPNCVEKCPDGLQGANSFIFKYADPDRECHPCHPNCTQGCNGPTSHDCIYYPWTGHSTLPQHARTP
The experiment in a line: phage binding assay on immobilized protein.

The target of another experiment is T3, HER3 (UniProt P21860 20-643, limits assumed).
T3 construct: Called 'closely related HER3'
T3 sequence (P21860 20-643 limits assumed): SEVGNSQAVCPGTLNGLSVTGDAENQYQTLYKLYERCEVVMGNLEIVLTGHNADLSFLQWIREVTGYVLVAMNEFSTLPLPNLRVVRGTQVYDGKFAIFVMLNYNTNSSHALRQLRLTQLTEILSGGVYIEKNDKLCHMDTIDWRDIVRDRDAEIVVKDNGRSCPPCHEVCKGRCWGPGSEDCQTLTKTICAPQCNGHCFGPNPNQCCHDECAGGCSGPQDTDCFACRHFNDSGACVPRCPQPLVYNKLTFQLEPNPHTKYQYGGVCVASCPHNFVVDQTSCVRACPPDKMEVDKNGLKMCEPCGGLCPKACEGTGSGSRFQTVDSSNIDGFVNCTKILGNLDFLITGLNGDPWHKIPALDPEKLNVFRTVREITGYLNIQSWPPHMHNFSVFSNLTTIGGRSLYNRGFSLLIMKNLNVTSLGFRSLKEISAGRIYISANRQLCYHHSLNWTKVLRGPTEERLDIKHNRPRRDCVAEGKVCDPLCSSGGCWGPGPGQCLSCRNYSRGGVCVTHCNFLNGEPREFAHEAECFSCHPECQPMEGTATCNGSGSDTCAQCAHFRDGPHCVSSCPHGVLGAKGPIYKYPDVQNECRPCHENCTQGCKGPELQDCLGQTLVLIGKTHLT
Briefly: phage binding assay on immobilized protein.

Another experiment addresses T4, BSA (UniProt P02769 25-607).
T4 construct: Control coating protein; also called immobilized BSA
The experiment in a line: phage binding assay on immobilized protein.

Experiment [4] has as its target T1, HER2 extracellular domain (HER2-ECD). The experiment in a line: direct binding ELISA, immobilized HER2-ECD, streptavidin-HRP detection.

T4 sequence (P02769 25-607 limits assumed): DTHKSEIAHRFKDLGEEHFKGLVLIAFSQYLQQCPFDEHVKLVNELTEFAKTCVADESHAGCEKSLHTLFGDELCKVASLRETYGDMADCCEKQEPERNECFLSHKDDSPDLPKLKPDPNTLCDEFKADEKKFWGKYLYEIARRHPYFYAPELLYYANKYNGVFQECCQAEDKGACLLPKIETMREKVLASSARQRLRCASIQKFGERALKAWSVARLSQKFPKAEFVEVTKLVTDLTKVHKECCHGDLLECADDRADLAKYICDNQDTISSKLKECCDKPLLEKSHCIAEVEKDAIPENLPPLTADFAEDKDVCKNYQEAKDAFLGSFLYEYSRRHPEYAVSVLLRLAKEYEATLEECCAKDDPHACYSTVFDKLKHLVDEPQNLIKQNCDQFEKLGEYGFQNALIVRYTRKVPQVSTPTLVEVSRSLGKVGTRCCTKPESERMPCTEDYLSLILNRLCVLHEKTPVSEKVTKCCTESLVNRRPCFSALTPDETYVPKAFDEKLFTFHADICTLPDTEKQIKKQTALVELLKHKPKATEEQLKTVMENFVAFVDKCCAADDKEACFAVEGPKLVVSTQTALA

B1: Peptide HER201 (peptide)
peptide: YSFEGWGCIGPGCAYLFEGH
modifications: disulfide 8-13 (inferred)
notes: also called synthetic peptide of phage-clone 1.1.2
A word on the IC50: it is the point on the concentration scale where inhibition reaches its midpoint. Turning to B1, in experiment [1], the IC50 is 300 nM.

B2: 1.1FI-Fc (Fc fusion)
chain: QVYESWGCIGPGCACLQACLGGGSSG
modifications: not fully specified (C-terminus); cysteine pairing not given here; also: fused through linker to Fc of human IgG1 (not in chain)
notes: also called peptide 1.1.FI fused through a linker to Fc of human IgG1; Her2-Fc expression vector product; not shown: Fc portion of the human IgG1 (700 base pair fragment)
Molecule B2 yielded an IC50 in experiment [2] of 3 nM.

B3: phage clone 1.1 (peptide)
peptide: YEVEAWDCMGPGCANLFEAH
modifications: not fully specified (C-terminus); cysteine pairing not given here; also: displayed on phage as pVIII fusion
notes: also called Pool 1 clone; not shown: linker and phage coat protein pVIII (polyvalent display)
On to B3, for which the binding result in experiment [3] was “binds”; in the experiment with HER4, “no binding”; with HER3, “no binding”; with BSA it was “no binding”.

B4: phage clone 5.1 (peptide)
peptide: RSCADVASRCWEHCIT
modifications: not fully specified (C-terminus); cysteine pairing not given here; also: displayed on phage as pVIII fusion
notes: also called Pool 5 clone; not shown: linker and phage coat protein pVIII (polyvalent display)
B4: the binding result in experiment [3] is given as “binds”; with HER4, “no binding”; in the experiment with HER3, “no binding”; with BSA, “no binding”.

B5: Peptide HER212 (peptide)
peptide: QVYESWGCIGPGCACLQACL
modifications: disulfide 8-13, 15-19
notes: Present only as monomer by mass spectrometry; also called synthetic peptide of clone 1.1.FI
In experiment [1], B5 returned a 50% inhibitory concentration (IC50) of 9000 nM.

B6: phage clone 7.1 (peptide)
peptide: CSWVLVQCGGEWWHCCGLGCGLVVNAC
modifications: not fully specified (C-terminus); printed as Cys-Ser-Trp-Val-Leu-Val-Gln-Cys-Gly-Gly-Glu-Trp-Trp-His-Cys-Cys-Gly-Leu-Gly-Cys-Gly-Leu-Val-Val-Asn-Ala-Cys; cysteine pairing not given here; also: displayed on phage as pVIII fusion
notes: also called Pool 7 clone; not shown: linker and phage coat protein pVIII (polyvalent display)
In the case of B6, the binding result in experiment [3] was “binds”; with HER4 it was “no binding”; with HER3, “no binding”; with BSA, “no binding”.

B7: 1.1.FI-Zb (biotinylated 1.1.FI-Z) (other)
chain: QVYESWGCIGPGCACLQACL
modifications: not fully specified (C-terminus); cysteine pairing not given here; also: biotinylated with NHS-LC-biotin, sites not given here, fused to Z domain of protein A (not in chain)
A word on the EC50: it is the concentration that produces a half-maximal response. A high value points to lower potency in that assay. Regarding B7, the half-maximal effective concentration (EC50) in experiment [4] was 2 nM. This lies in the single-digit nanomolar range.

B8: (1.1FI)2-Z (other)
chain: QVYESWGCIGPGCACLQACLGGGSGGQVYESWGCIGPGCACLQACL-{Z domain of protein A}
modifications: not fully specified; cysteine pairing not given here; also: fused to Z domain of protein A (not in chain)
notes: also called single chain dimer; 1.1FI repeated twice and fused to the Z domain of protein A
In the case of B8, the concentration for half-maximal inhibition (IC50) in experiment [1] came out at 20 nM.
